Literature values in paper PMC6051640.

Biological target: retinol binding protein (Homo sapiens) (UniProt P02753)

In the case of Stra6 (from UniProt Q9BX79), the Kd is listed as 59 nM.
